Article PMC2779898

Legend:
Experiment in all cases: EMSA
PF0547 = target: T1, PF0547 (Pyrococcus furiosus, UniProt Q8U3C3 1-448)
T1 sequence: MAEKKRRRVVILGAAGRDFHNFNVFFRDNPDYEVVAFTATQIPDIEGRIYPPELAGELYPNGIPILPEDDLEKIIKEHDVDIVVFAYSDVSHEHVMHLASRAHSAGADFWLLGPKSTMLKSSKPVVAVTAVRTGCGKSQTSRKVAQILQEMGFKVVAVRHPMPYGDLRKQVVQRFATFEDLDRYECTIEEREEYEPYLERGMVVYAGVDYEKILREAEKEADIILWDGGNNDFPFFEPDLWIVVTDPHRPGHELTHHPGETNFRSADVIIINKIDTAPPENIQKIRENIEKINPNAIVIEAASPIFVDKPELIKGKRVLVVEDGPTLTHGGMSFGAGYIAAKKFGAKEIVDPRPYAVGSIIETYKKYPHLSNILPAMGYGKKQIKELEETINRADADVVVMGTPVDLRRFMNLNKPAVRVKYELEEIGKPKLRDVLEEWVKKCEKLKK

PF1142 = target: T2, PF1142 (Pyrococcus furiosus, UniProt Q8U1R3 1-280)
T2 sequence: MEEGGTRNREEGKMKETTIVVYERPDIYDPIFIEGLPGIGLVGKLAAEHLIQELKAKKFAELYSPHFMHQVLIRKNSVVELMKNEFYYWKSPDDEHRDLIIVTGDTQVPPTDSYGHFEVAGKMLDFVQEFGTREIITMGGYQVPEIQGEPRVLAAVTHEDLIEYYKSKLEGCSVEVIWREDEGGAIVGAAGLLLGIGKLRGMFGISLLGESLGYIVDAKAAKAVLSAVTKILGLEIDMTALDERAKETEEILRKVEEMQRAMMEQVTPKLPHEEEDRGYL

PF1913 = target: T3, PF1913 (Pyrococcus furiosus, UniProt Q8TZS1 1-157)
T3 sequence: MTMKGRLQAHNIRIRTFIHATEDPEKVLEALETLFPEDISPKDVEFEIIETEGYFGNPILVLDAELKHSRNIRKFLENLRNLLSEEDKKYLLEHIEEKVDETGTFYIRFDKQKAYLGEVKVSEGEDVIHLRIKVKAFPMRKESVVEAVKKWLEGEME

PF1488 = target: T4, PF1488 (Pyrococcus furiosus, UniProt Q8U0U4 1-222)
T4 sequence: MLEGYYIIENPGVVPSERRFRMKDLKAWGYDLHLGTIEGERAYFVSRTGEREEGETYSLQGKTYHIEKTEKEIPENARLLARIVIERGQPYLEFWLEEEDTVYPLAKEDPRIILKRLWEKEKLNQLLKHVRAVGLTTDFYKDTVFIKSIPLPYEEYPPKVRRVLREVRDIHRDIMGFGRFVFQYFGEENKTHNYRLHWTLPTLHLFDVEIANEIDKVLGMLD

Measured: binding result

B1: MPOR-27 (structured_RNA)
RNA: GAAACAAGGAGAAAUGGUUCGUGUCCU
no binding: all assays above
